This note sets out measurements from patent US20110070615A1 (published 2011).

This assay addresses T1, hu IGF-1R(ECD)-C3-muIgG1Fc (human; mouse, Glycosylated. About 60% of the preparation is cleaved at RKRR (chain pos 708-711) into disulfide-linked alpha and beta chains, 40% is uncleaved. Dimer through receptor and Fc disulfides.).
T1 construct: 60% of the purified protein was processed into α and β chains, 40% unprocessed; also called IGF-1R(ECD)-C3-muFc; IGF-1R-C3-muFc
The assay is described as follows: phage Fab ELISA, IGF-1R-C3-mFc coated at 5 µg/ml, anti-M13-HRP. On the procedure: In 96-well 2-ml deep-well blocks, 480 μl/well 2×YT-CG broth was inoculated with 20 μl of overnight cultures of the individual clones, then incubated at 37° C., 300 rpm for 3 hours. To each well, 50 μl of 1:3 diluted M13KO7 helper phage were added to infect the cells. The block was incubated at 37° C. without shaking for 30 minutes, and then shaken gently for another 30 minutes at 150 rpm. The block was centrifuged at 3600 rpm for 20 minutes to pellet the infected cells. The cell pellet in each well was suspended into 480 μl of 2×YT-CK (2×YT broth containing 100 μg/ml carbenicillin and 40 μg/ml kanamycin), and incubated at 30° C. overnight for about 20 hours. The cell debris was separated by centrifugation at 3600 rpm for 20 minutes. The rescued phage supernatant was used in the phage ELISA to check for IGF-1R-specific, INSR-cross reactive, or mouse Fc binding of individual clones.
Three sets of Nunc MaxiSorb Immunoplates were coated with 100 μ/well of IGF-1R-C3-mFc at 5 μg/ml, INSR-mFc at 5 μg/ml, or mouse IgG1 (catalog #010-0103, Rockland, Gilbertsville, Pa.) at 2 μg/ml in PBS, respectively, at 4° C. overnight. The coated plates were washed 3× with […] of PBS. The washed plates were blocked with 300 μl/well 2% MPBS at room temperature for one hour. Meanwhile, rescued phages of individual clones were pre-blocked by mixing 170 μof rescued phage with 170 μl of 4% MPBS. The blocked plates were washed 5× with 300 μl/well TBST (TBS: 10 mM Tris-HCl, pH 7.5, 1 mM EDTA, 150 mM NaCl; Tween-20. 0.1%). 100 μl/well of pre-blocked phage dilutions were distributed to each set of coated plate, which were incubated at room temperature on a rocker for 90 minutes. The plates were washed 5× with 300 μl/well TBST. 100 μl/well of anti-M13-HRP in 2% MPBS (1:3000 dilution, catalog number 27-9421-01, Amersham Pharmacia Biotech) were distributed, and plates were incubated at room temperature on rocker for one hour. The plates were washed 5× with 300 μl/well TBST. 100 μl/well of the substrate 1-Step™ ABTS (Pierce Biotechnology, Rockford, Ill., catalog number 37615) were added. Plates were incubated for one hour. OD₄₀₅ was measured for signal detection.
A general note: ELISA stands for enzyme-linked immunosorbent assay.

B1: L16H16 (Fab, V domains shown)
VH: QVQLQESGPGLVKPSGTLSLTCAVSGGSISSSNWWSWVRQPPGKGLEWIGEIYHSGSTNYNPSLKSRVTISVDKSKNQFSLKLSSVTAADTAVYYCARWTGRTDAFDIWGQGTMVTVSS
VL: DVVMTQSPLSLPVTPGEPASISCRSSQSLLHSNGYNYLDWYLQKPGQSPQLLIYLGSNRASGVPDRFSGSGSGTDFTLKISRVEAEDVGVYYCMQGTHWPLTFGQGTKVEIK
Take B1: the binding result is recorded as “binds”.

B2: L19H19 (Fab, V domains shown)
VH: QVQLVESGPGLVKPSGTLSLTCAVSGGSISSSNWWSWVRQPPGKGLEWIGEIYHSGSTNYNPSLKSRVTISVDKSKNQFSLKLSSVTAADTAVYYCARDSSGFYGMDVWGQGTTVTVSS
VL: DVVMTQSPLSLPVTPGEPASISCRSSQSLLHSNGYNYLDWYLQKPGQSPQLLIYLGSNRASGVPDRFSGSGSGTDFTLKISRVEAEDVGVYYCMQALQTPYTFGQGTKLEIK
In the case of B2, the binding result is on record as “binds”.

B3: L18H18 (Fab, V domains shown)
VH: QVQLVESGGGVVRPGGSLRLSCAASGFTFSSYAMSWVRQAPGKGLEWVSTISGSGGSTYYADSVKGRFTISRDNSKNTLYLQMNSLRAEDTAVYYCAKERGSGWSLDNMDVWGQGTTVTVSS
VL: DIQLTQSPSSVSASVGDRVTITCRASQGISRWLAWYQQKPGKAPRLLIYAASGLQSGVPSRFSGSGSGTDFTLTISNLQPEDFATYYCQQASSFPITFGQGTRLETK
Regarding B3, the binding result was “binds”.

B4: L20H20 (Fab, V domains shown)
VH: QVQLQESGPGLVKPSGTLSLTCAVSGGSISSSNWWSWVRQPPGKGLEWIGEIYHSGSTNYNPSLKSRVTISVDKSKNQFSLKLSSVTAADTAVYYCARSSSWYWNAFDIWGQGTMVTVSS
VL: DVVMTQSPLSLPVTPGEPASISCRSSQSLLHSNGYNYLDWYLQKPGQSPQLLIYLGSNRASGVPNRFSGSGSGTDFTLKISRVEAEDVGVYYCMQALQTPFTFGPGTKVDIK
For B4, the binding result is reported as “binds”.
